Laboratory results from US20260049134A1 (UNIVERSITY OF FLORIDA RESEARCH FOUNDATION, published 2026).

T1: CADM1, endogenous in H929 multiple myeloma cells (human, UniProt Q9BY67 45-442)
T1 construct: Native protein on H929 cells (flow cytometry, siRNA knockdown) and in H929 lysates (IP/MS); RPMI-8226 cells were used for sorting with HW-97; also called IGSF4A
T1 sequence: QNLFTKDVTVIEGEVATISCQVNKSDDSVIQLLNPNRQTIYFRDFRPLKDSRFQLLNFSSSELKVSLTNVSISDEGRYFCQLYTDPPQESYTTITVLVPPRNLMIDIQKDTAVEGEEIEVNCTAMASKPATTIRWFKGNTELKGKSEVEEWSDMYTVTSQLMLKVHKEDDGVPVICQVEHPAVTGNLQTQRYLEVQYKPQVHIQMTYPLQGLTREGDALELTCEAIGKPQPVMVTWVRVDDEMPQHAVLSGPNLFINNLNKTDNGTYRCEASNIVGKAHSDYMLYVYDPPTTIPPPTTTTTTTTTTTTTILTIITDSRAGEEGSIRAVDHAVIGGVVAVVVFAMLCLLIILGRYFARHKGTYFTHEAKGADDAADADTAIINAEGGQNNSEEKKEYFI


How the values were obtained:
[1] = target: T1, CADM1, endogenous in H929 multiple …; assay: flow cytometry, H929 + NT Green siRNA; None 1.35
[2] = target: T1, CADM1, endogenous in H929 multiple …; assay: flow cytometry, H929 + vehicle; None 513
[3] = target: T2, ICAM1, endogenous in H929 multiple myeloma cells (human, UniProt P05362 28-532); assay: IP from H929 cell lysate, LC-MS/MS, heatmap
T2 construct: Native protein on H929 cells (flow cytometry, siRNA knockdown) and in H929 lysates (IP/MS); also called CD54
T2 sequence (P05362 28-532 limits assumed): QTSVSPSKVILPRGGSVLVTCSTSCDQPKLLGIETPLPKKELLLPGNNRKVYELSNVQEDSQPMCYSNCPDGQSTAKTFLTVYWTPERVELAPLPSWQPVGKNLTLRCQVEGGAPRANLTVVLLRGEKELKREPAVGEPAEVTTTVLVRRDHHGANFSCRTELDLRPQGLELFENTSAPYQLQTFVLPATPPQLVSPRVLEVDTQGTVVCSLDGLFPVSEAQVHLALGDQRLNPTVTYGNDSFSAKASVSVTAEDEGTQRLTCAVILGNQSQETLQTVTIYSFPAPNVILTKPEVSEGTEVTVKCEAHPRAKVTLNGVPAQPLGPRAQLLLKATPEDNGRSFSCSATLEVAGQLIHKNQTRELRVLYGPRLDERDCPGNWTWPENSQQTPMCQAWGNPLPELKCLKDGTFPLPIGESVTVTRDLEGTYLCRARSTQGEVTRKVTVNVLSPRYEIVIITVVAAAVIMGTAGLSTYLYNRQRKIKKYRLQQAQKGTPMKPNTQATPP
Protocol: (§1) Immunoprecipitation. […] After 30 min of rocking at 4° C., and lysates were centrifuged at 18,400×g for 20 min at 4° C. Subsequently, 1-mL aliquots of the supernatants were pre-cleared twice with Protein G agarose (Thermo Fisher Scientific) by adding 50 μL of 50% resin slurry and incubating 30 min with end-over-end tumbling at 4° C., followed by centrifugation at 16,000×g for 5 min and pooling of the pre-cleared cell lysate aliquots. Representative mAbs from each cluster were immobilized on Protein G agarose at a ratio of 25 μg IgG1 per 30 μL of 50% slurry, diluted to 500 μL with Dulbecco's PBS (DPBS) and incubated for 1 h at 4° C. with tumbling, followed by centrifugation at 5,000×g for 30 s and 2 washes with lysis buffer. After the last wash, the ˜15 μL of IgG1-coated resin was blocked with 10 μL of 10% BSA (MilliporeSigma). Next, 1 mL of the pooled pre-cleared cell lysate was added to the IgG1-coated resin and incubated for 3 h at 4° C. with tumbling. The immune complexes were pelleted by centrifugation at 2,500×g at 4° C. for 30 s, and gently resuspended to wash for 3 min in 1 mL of lysis buffer, which was repeated once with lysis buffer and twice with an identical wash buffer lacking Triton X-100. Finally, the immune complexes were eluted from the resin with three batch-wise steps using 30 μL of elution buffer (6 or 8 M urea (MilliporeSigma), 20 mM Tris-HCl pH 7.5, and 100 mM NaCl) and incubating 15 min at RT with 450 rpm orbital agitation. Finally, 16 μL of the eluate (˜20%) was analyzed on a reducing SDS-PAGE gel stained with SYPRO Ruby dye (Bio-Rad Laboratories), while the rest was stored at −80° C. prior to LC-MS/MS analysis.
(§2) Protein elutions in 6 or 8 M urea were reduced with 15 mM dithiothreitol at 56° C. for 30 min followed by alkylation with 30 mM iodoacetamide in the dark at RT. The elutions were then diluted to 1 M urea with 50 mM ammonium bicarbonate pH 7.8 and digested overnight at 37° C. following the addition of 4 μg trypsin (Promega).

[4] = target: T1, CADM1, endogenous in H929 multiple …; assay: IP from H929 cell lysate, LC-MS/MS, heatmap
Protocol: as §1, §2

[5] = target: T3, PTPRG, endogenous in H929 multiple myeloma cells (human, UniProt P23470 20-1445); assay: flow cytometry, H929 + CADM1 siRNA; None 0.89
T3 construct: Native protein on H929 cells (flow cytometry, siRNA knockdown) and in H929 lysates (IP/MS); also called phosphatase receptor type γ
T3 sequence (P23470 20-1445 limits assumed): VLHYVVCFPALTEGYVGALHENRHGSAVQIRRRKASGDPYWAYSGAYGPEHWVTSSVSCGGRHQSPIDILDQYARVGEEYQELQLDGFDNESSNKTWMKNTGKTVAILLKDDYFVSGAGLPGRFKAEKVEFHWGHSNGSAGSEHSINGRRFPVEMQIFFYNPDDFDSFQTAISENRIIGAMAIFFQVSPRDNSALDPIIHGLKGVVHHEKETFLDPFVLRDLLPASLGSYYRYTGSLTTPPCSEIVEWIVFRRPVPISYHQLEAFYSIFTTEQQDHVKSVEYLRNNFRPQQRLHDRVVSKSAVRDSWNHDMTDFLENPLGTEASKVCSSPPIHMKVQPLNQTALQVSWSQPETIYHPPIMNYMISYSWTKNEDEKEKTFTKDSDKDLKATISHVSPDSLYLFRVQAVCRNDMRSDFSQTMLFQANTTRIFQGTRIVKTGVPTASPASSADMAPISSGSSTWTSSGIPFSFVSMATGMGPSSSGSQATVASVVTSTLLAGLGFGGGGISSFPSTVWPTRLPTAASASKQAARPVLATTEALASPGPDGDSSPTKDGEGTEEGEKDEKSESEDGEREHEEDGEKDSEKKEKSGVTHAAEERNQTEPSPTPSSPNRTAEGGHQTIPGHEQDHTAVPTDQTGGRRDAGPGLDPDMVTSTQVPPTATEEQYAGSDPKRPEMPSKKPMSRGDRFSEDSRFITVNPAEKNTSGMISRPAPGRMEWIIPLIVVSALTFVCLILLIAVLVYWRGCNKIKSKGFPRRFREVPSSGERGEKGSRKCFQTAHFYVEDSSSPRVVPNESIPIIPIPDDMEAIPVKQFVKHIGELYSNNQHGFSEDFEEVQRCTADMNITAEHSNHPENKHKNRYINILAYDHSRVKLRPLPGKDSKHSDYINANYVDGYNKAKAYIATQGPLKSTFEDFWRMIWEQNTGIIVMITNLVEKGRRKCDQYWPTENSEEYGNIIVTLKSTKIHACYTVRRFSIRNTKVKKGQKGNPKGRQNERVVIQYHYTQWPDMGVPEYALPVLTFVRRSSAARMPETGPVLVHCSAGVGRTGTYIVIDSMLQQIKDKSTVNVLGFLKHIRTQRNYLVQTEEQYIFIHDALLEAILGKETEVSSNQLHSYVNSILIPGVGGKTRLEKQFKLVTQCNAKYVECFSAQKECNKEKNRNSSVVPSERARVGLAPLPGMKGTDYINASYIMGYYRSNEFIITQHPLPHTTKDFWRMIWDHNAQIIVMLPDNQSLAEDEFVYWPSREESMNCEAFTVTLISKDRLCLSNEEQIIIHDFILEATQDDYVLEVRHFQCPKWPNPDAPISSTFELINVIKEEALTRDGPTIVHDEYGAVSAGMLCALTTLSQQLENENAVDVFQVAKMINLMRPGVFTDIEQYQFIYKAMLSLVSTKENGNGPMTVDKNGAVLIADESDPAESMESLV

[6] = target: T3, PTPRG, endogenous in H929 multiple …; assay: flow cytometry, H929 + PTPRG siRNA (target knocked down); None 2.13
Protocol: Recombinant purified ECDs (50-150 ng) of each putative target protein were coated, incubated with 150 ng of the indicated primary antibody, and binding was detected using a peroxidase-conjugated anti-human Fab secondary antibody. Heatmap represents averages of technical triplicates. (8B) Target validation via siRNA knockdown. H929 cells were transfected with siRNA pools targeting the putative antibody targets ICAM1, CADM1, and PTPRG. Cells were then subjected to cognate IgG binding analysis via flow cytometry. (NT, non-targeting siRNA).
Staining protocol. Cells were harvested (5×10⁴ cells per sample), washed once with phosphate-buffered saline (PBS) at RT, and a second time with ice-cold FACS buffer (PBS, 0.5% BSA, 2 mM EDTA, 0.1% NaN₃). Cells were stained in 50 μL of primary antibody for 30 min on ice, washed twice with 100 μL FACS buffer, stained with 50 μL of diluted secondary antibody, washed two more times in FACS, and then resuspended in 50 μL FACS buffer. Samples were acquired on an Accuri C6 Plus or a BD FACSCanto II flow cytometer (both from BD Biosciences). Data were analyzed using FlowJo version 10 software. Primary antibodies: Fab (10 μg/mL), IgG1 (0.1 to 50 μg/mL), or 25 μL polyclonal Fabs from periplasmic extracts. Polyclonal Fabs were produced by diluting bacterial stocks by a factor of 100 in autoinduction media and incubating overnight to induce expression as previously described. […] Viability stains: DAPI (Cell Signaling Technology) or SYTOX AADvanced Dead Cell Stain (Thermo Fisher Scientific). Labeling: The panel of chimeric rabbit/human IgG1s was labeled using the Alexa Fluor 647 Labeling Kit (Thermo Fisher Scientific, #A20173) to facilitate single-step staining. Competition: Unlabeled IgG1s were added at saturating concentrations of 60 μg/mL to block the target receptors, incubating on ice for 30 min, followed by the addition of an equal volume of the Alexa Fluor 647 labeled antibody at 2 μg/mL, and the mixture was incubated on ice for another 30 min.

[7] = target: T3, PTPRG, endogenous in H929 multiple …; assay: IP from H929 cell lysate, LC-MS/MS, heatmap
Protocol: as §1, §2

Binder | binding result [3] | binding result [4] | Cells stained (%) [5] [%] | Cells stained (%) [6] [%] | also measured
TH9-0022 (antibody, human IgG1, kappa, L234A L235A, V domains shown, also called TH9-022; negative control) VH: QSLEESGGRLVTPGTPLTLTCTVSGFSLSSYAMNWVRQAPGKGLEWIGIINSYGSTYYASWAKGRFTISKTSTTVDLKITSPTTEDTATYFCARVTYDSYGYGYAPYGMDLWGPGTLVTVSS VL: LVMTQTPSSTSNAVGGTVTIKCQASQSIGNVLAWYQQKPGQPPKLLIYAASTLASGVPSRVGGSRSGTEYTLTISGVQREDAATYYCLGSDSDSDIAFGGGTELEILR |  |  |  |  | Cells stained (%) [1]: 1.86%; mAb binding (MFI) [2]: 595
TH9-0022 (antibody, human IgG1, kappa, L234A L235A, V domains shown, also called TH9-022; negative control IgG1) VH: QSLEESGGRLVTPGTPLTLTCTVSGFSLSSYAMNWVRQAPGKGLEWIGIINSYGSTYYASWAKGRFTISKTSTTVDLKITSPTTEDTATYFCARVTYDSYGYGYAPYGMDLWGPGTLVTVSS VL: LVMTQTPSSTSNAVGGTVTIKCQASQSIGNVLAWYQQKPGQPPKLLIYAASTLASGVPSRVGGSRSGTEYTLTISGVQREDAATYYCLGSDSDSDIAFGGGTELEILR | no binding | no binding |  |  | 
HW-42 chimeric rabbit-human IgG1 LA/LA/PG (antibody, V domains shown, Fc-silenced (L234A/L235A/P329G) IgG1, lambda; Alexa Fluor 647-labeled in single-step flow cytometry; Cluster C-1) VH: QSVKESEGGLFKPADTLTLTCTVSGFSLSSNEISWVRQAPGEGLEYIGIIDTGGRAYYAVWARSRSTITRNTNLNTVTLKMTSLTAADTATYFCARGGVDTEWYAFSSWGPGTLVTVPS VL: SFVLTQPASVQVNLGQTVSLTCTADTLSRRYASWYQQKPGQAPVLLIFRDTSRPSGVPDRFSGSSSGDTATLTISGAQAGDEADYYCATSDGSGSNYQYVFGGGTQLTVTG |  |  | 97.3 | 0.55 | 
HW-97 chimeric rabbit-human IgG1 LA/LA/PG (antibody, V domains shown, Fc-silenced (L234A/L235A/P329G) IgG1, lambda; Alexa Fluor 647-labeled in single-step flow cytometry; Prototype of cluster C-97) VH: QKQLVESGGRLVTPGTPLTLTCTVTGIDLSSHGMSWVRQAPGKGLEWIGVIYPSGSTWYASWARGRFTISKTSTTVDLKMTSLTTEDTATHFCARGDVGGADNNIWGPGTLVTVSS VL: SFVLTQPASVQVDLGQTVSLTCTAETLSRSYASWYQQKPGQAPVLLIYRDTSRPSGVPDRFSGSSSGNTATLTISGAQAGDEADYYCATSDGSGSSYQYVFGGGTQLTVTG |  |  |  |  | Cells stained (%) [1]: 98.1%; mAb binding (MFI) [2]: 9510
HW-17 chimeric rabbit-human IgG1 LA/LA/PG (antibody, V domains shown, Fc-silenced (L234A/L235A/P329G) IgG1, lambda; Alexa Fluor 647-labeled in single-step flow cytometry; Cluster C-1) VH: QSLGESRGRLVTPDETLTLTCTVSGIDLSSNAMSWVRQAPGEGLEWIGTINTGGRAYYASWAKGRFTISRTSTTVDLKMTSLTTEDTATYFCARERYSDGRAYDIWGPGTLVTISS VL: SFVLTQPASVQVNLGQTVSLTCTADTLSRRYASWYQQKPGQAPVLLIYTDSNRPSGIPDRFSGSSSGNTATLTISGAQAGDEADYYCATDDGSGSIYQYVFGGGTQLTVTG |  |  | 99.3 | 1.25 | 
HW-45 chimeric rabbit-human IgG1 LA/LA/PG (antibody, V domains shown, Fc-silenced (L234A/L235A/P329G) IgG1, lambda; Alexa Fluor 647-labeled in single-step flow cytometry; Prototype of cluster C-45) VH: QKQLVESGGRLVTPGTPLTLTCTVSGFSLSSYAMGWFRQAPGKGLEWIGIINSYGSTYYASWAKGRFTISKTSTTVDLKITSPTTEDTATYFCGRRIGSARFDPWGPGTLVTVSS VL: SFVLTQPASVQVNLGQTVSLTCTADTLSRSYASWYQQKPGQAPVLLIYRDTRRPSGVPDRFSGSSSGNTATLTISGAQAGDEADYYCATSDGSGSSYRLVFGGGTQLTVTG | no binding | no binding |  |  | binding result [7]: no binding
HW-113 chimeric rabbit-human IgG1 LA/LA/PG (antibody, V domains shown, Fc-silenced (L234A/L235A/P329G) IgG1, lambda; Alexa Fluor 647-labeled in single-step flow cytometry) VH: QKQLVESGGGLVQPGGSLTLTCTVSGFSLNKYYMGWFRQAPGKGLEWIGVISRSGDTYYSSWAKGRFTISKASTTVDLRITSPTTEDTATYFCARDASSPGFHGDRLDLWGQGTLVTVSS VL: SFVLTQPASVQVNLGQTVSLTCTADTLSRSYASWYQQKPGQAPVLLIYRDTSRPSGVPDRFSGSSSGNTATLTISGAQAGDEADYYCATSDGIGSNYLWVFGGGTQLTVTG |  | no binding |  |  | binding result [7]: no binding
HW-70 chimeric rabbit-human IgG1 LA/LA/PG (antibody, V domains shown, Fc-silenced (L234A/L235A/P329G) IgG1, lambda; Alexa Fluor 647-labeled in single-step flow cytometry; Cluster C-1) VH: QSLEESGGRLVTPGTPLTLTCTVSGFSLSSNAMSWVRQAPGKGLEWIGTIDGYGYTYYASWAKGRFTVSKTSTTVDLKITSPTTEDTATYFCAREIYLGSNFWGPGTLVTISS VL: SFVLTQPASVQVNLGQTVSLTCTADTLSRRYASWYQQKPGQAPVLLIYRDTSRPSGVPDRFSGSSSGNTATLTISGAQAGDEADYYCATADGSGSSYQFVFGGGTQLTVTG |  |  | 98.7 | 0.87 | 
HW-1 chimeric rabbit-human IgG1 LA/LA/PG (antibody, V domains shown, Fc-silenced (L234A/L235A/P329G) IgG1, lambda; Alexa Fluor 647-labeled in single-step flow cytometry; Prototype of cluster C-1) VH: QSLEESGGGLFKPTDTLTLTCTASGFSLGSSYAISWVRQAPGKELEWIGTIDSGRAYYARWAKSRSTITRNTNENTVTLKMTSLTAADTATYFCARDLIPTYSQDIWGPGTLVTISS VL: SFVLTQPASVQVNLGQTVSLTCTADTLSRRYASWYQQKPGQAPVLLIYRDTSRPSGVPDRFSGSSSGNTATLTISGAQAGDEADYYCATSDGSGNSYQYVFGGGTQLTVTS | no binding | no binding | 99.3 | 1.2 | 
HW-25 chimeric rabbit-human IgG1 LA/LA/PG (antibody, V domains shown, Fc-silenced (L234A/L235A/P329G) IgG1, lambda; Alexa Fluor 647-labeled in single-step flow cytometry; Cluster C-1) VH: QSLEESGGRLVTPGTPLTLTCTVSGFSLSSYAMGWVRQAPGKGLEWIGIIDSRGSTYYATWAKGRFTISKTSTTVDLKITSPTTEDTATYFCAREDSYYYDSFNLWGPGTLVTVSS VL: SFVLTQPASVQVNLGQTVSLTCTADTLSRRYASWYQQKPGQAPVLLIYRDTSRPSGVPDRFSGSSSGNTATLTISGAQAGDEADYYCATSDGSGSSYQCVFGGGTQLTVTG |  |  | 97.7 | 0.87 | 
